Measured values: paper PMC7240154

What was measured:
Experiment in all cases: ITC; Vps4 MIT domain (3 uM in PBS) in the cell, titrated with 19 injections of 10 ul of Vps2/24/46 or Vps20/32/60 (33 uM in PBS) at 2-min intervals; 25°C; ITC200; fits: One Set of Sites or Sequential Binding Sites
[1] = target: Heimdallarchaeota_LC_3 Vps4 MIT domain (Heimdallarchaeota_LC_3)
[2] = target: Odinarchaeota_LCB_4 Vps4 MIT domain (Odinarchaeota_LCB_4)
[3] = target: Lokiarchaeum_GC14_75 Vps4 MIT domain (Lokiarchaeum_GC14_75)

Substance	dH1 (Sequential Binding Sites, site 1) [1]	dH2 (Sequential Binding Sites, site 2) [1]	dH [2]	further results
Heimdallarchaeota_LC_3 Vps2/24/46 (natural protein)	-473 kcal/mol	931 kcal/mol	–	–
Lokiarchaeum_GC14_75 Vps20/32/60 (natural protein)	–	–	–	dH [3]: 1420 kcal/mol
Lokiarchaeum_GC14_75 Vps2/24/46 (natural protein)	–	–	–	dH1 (Sequential Binding Sites, site 1) [3]: -121 kcal/mol; dH2 (Sequential Binding Sites, site 2) [3]: 422 kcal/mol
Heimdallarchaeota_LC_3 Vps20/32/60 (natural protein)	2780 kcal/mol	-2310 kcal/mol	–	–

Second part, led by results:

dH1 (Sequential Binding Sites, site 1) [1]	dH2 (Sequential Binding Sites, site 2) [1]	dH [2]	Substance	further results
–	–	331 kcal/mol	Odinarchaeota_LCB_4 Vps20/32/60 (natural protein)	–
–	–	392 kcal/mol	Odinarchaeota_LCB_4 Vps2/24/46 (natural protein)	–
